Experiment [1] deals with B*27:09/photoRL9 (human).
Experiment [2] addresses A*03:01/photoKK9 (human).
Experiment [3] addresses A*02:01/photoKV9 (human).
Experiment [4] has as its target B*27:05/photoRL9 (human).
In experiment [5] the target is B*27:09/photoRL9 (human). This is another data set of the same source.
Experiment [6] deals with A*03:01/photoKK9 (human). The source holds these as a separate data set.
The target of experiment [7] is A*02:01/photoKV9 (human). The source holds these as a separate data set.
For experiment [8], the target named is B*27:05/photoRL9 (human). This is another data set of the same source.
Experiment [9] concerns the target B*27:09/photoRL9 (human). The source holds these as a separate data set.
In experiment [10] the target is A*03:01/photoKK9 (human). This is another data set of the same source.
The target in experiment [11] is A*03:01/photoKK9 (human). The source holds these as a separate data set.
For experiment [12], the target named is B*27:09/photoRL9 (human). The source holds these as a separate data set.
The target in experiment [13] is A*03:01/photoKK9 (human). This is another data set of the same source.
In experiment [14] the target is B*27:05/photoRL9 (human). The source holds these as a separate data set.

The values below come from article PMC8271027.

“TAPBPR (TAP-binding protein-related protein) (from UniProt Q9BX59 19-405) (natural protein)” displayed a fold increase of the peptide exchange rate (observed Kon of FITC-RL9, fluorescence polarisation) of 500 nM UV-exposed B*27:09/photoRL9 with equimolar TAPBPR against none in [1] of 3.13 fold. Also, the fold increase of the peptide exchange rate (observed Kon of FITC-KK9, fluorescence polarisation) of 500 nM UV-exposed A*03:01/photoKK9 with equimolar TAPBPR against none in experiment [2] amounted to 34.3 fold. The fold increase of the peptide exchange rate (observed Kon of FITC-GV9, fluorescence polarisation) of 500 nM UV-exposed A*02:01/photoKV9 with equimolar TAPBPR against none in experiment [3] is 30.9 fold. The substance further came in with a fold increase of the peptide exchange rate (observed Kon of FITC-RL9, fluorescence polarisation) of 500 nM UV-exposed B*27:05/photoRL9 with equimolar TAPBPR against none in [4] of 1.48 fold.
“ERp57-Tapasin conjugate (wild-type) (from UniProt O15533 21-398; P30101 25-504) (complex)”: the fold increase of the peptide exchange rate (observed Kon of FITC-RL9, fluorescence polarisation) of 500 nM UV-exposed B*27:09/photoRL9 with equimolar ERp57-Tsn^WT against none in experiment [5] amounted to 3.83 fold. Further, the fold increase of the peptide exchange rate (observed Kon of FITC-KK9, fluorescence polarisation) of 500 nM UV-exposed A*03:01/photoKK9 with equimolar ERp57-Tsn^WT against none in [6] was 10.9 fold. In experiment [7], this substance had a fold increase of the peptide exchange rate (observed Kon of FITC-GV9, fluorescence polarisation) of 500 nM UV-exposed A*02:01/photoKV9 with equimolar ERp57-Tsn^WT against none of 1.31 fold. In experiment [8], this substance came in with a fold increase of the peptide exchange rate (observed Kon of FITC-RL9, fluorescence polarisation) of 500 nM UV-exposed B*27:05/photoRL9 with equimolar ERp57-Tsn^WT against none of 5.83 fold.
For the substance “ERp57-Tsn^K16L (from UniProt O15533 21-398; P30101 25-504) (complex)”, the relative catalytic activity in peptide exchange against ERp57-Tsn^WT; UV-exposed B*27:09/photoRL9, FITC-IF9 in experiment [9] is 1.26 of WT. The relative catalytic activity in peptide exchange against ERp57-Tsn^WT; UV-exposed A*03:01/photoKK9, FITC-KK9 in [10] is 0.93 of WT.
In the case of “ERp57-Tsn^K16G (from UniProt O15533 21-398; P30101 25-504) (complex)”, in experiment [11], the relative catalytic activity in peptide exchange; UV-exposed A*03:01/photoKK9, FITC-KK9 (second printing, other number) was 0.73 of WT. Further, the relative catalytic activity in peptide exchange, (Kon mutant - Kon noTsn)/(Kon WT - Kon noTsn); UV-exposed B*27:09/photoRL9, FITC-IF9 in experiment [12] was 0.95 of WT. Further, the relative catalytic activity in peptide exchange, (Kon mutant - Kon noTsn)/(Kon WT - Kon noTsn); UV-exposed A*03:01/photoKK9, FITC-KK9 in experiment [13] is 0.77 of WT. For the same substance, the relative catalytic activity in peptide exchange, (Kon mutant - Kon noTsn)/(Kon WT - Kon noTsn); UV-exposed B*27:05/photoRL9, FITC-RL9 in [14] was 0.86 of WT.
For “ERp57-Tsn^L18G (from UniProt O15533 21-398; P30101 25-504) (complex)”, the relative catalytic activity in peptide exchange, (Kon mutant - Kon noTsn)/(Kon WT - Kon noTsn); UV-exposed B*27:09/photoRL9, FITC-IF9 in experiment [12] was 0.04 of WT. Moreover, the relative catalytic activity in peptide exchange, (Kon mutant - Kon noTsn)/(Kon WT - Kon noTsn); UV-exposed A*03:01/photoKK9, FITC-KK9 in experiment [13] is 0.36 of WT. The relative catalytic activity in peptide exchange, (Kon mutant - Kon noTsn)/(Kon WT - Kon noTsn); UV-exposed B*27:05/photoRL9, FITC-RL9 in experiment [14] is 0.05 of WT.
